{
  "source": "the DeepSol protein solubility set",
  "data": [
    {"experiment": "soluble on expression in E. coli; label from the status in PepcDB or PDB records", "values": [
      {"sequence": "MEKNFKVAALYCFADLKHYRQLQKPLLDLCQAKDIKGTLLLAQEGINGTVAGSCAAIETLVDFITAEPAFQMPEIKYSWASKMPFHRMKVRLKKEIVTMGVDGVNPLKAVGTYVDPKDWNALIQDEETLLIDTRNDYEYAIGSFQGAVDPRIKTFREFPAWVLKHEADLKKKKKIAMFCTGGIRCEKSTAYVRELGYEQVYHLKGGILKYLETIPKEDSLWWGECFVFDERVSVKHGLEECGRELCRACRSPLNTESKLSPHYEEGVSCDACYNTRSEDDRERFRERHRQFQLSKLRAMHSHQELEHHHHHH", "soluble on expression in E. coli": "not soluble"},
      {"sequence": "MESKVVVPAQGKKITLQNGKLNVPENPIIPYIEGDGIGVDVTPAMLKVVDAAVEKAYKGERKISWMEIYTGEKSTQVYGQDVWLPAETLDLIREYRVAIKGPLTTPVGGGIRSLNVALRQELDLYICLRPVRYYQGTPSPVKHPELTDMVIFRENSEDIYAGIEWKADSADAEKVIKFLREEMGVKKIRFPEHCGIGIKPCSEEGTKRLVRAAIEYAIANDRDSVTLVHKGNIMKFTEGAFKDWGYQLAREEFGGELIDGGPWLKVKNPNTGKEIVIKDVIADAFLQQILLRPAEYDVIACMNLNGDYISDALAAQVGGIGIAPGANIGDECALFEATHGTAPAYAGQDKVNPGSIILSAEMMLRHMGWTEAADLIVKGMEGAINAKTVTYDFERLMDGAKLLKCSEFGDAIIENM", "soluble on expression in E. coli": "soluble"},
      {"sequence": "MCMKQSLFGRVRDAILADFHNVLDEKERKNPIAMLNQYLRDSEREITKIEKLIQRHKTLKSNFARELEQARYFVNKRSKQALIAQEAGELQLHERALEEVAYYEGQVTRLEEMYAGVVEQIDELERRLSEMKNKLKEMHAKRMELMARENMAHANRRMNTAMHKMDENNPFLRFEEIEEHIRDLETRMNEEHERDTFDMKIAKLEREMKEKNDVSLTKELTKLEHHHHHH", "soluble on expression in E. coli": "not soluble"},
      {"sequence": "MGSDKIHHHHHHMNLATPSQMTAASIETFDATSCAAFSACYPETPHKLVHRLRDHPLLQLDALAALGEELPAHSVEYNRADLPIGLNGGKAPPNGIGIGETIRNIASTGSWAALKNVEQVPAYAALLGELLEGLRPTIEARTGAMLKPQGFVFVTSPDGVTPYHFDPEHNILLQLMGSKVMTMFPAGDSRFAPDETHETYHTGGGRELFWRDELLGHGRQWPLSPGEALYVPVMSPHFVTNGPSPSVSLSITWRSEWSFAEADARAFNGLLRSMGLKPGAPRRWPASNRAKAMCWRLYGKVRGLR", "soluble on expression in E. coli": "not soluble"},
      {"sequence": "MSLDKVYPIGSQYTINGFIIGDDTTENGYPITAKIEVVDTKNTISPKLIAHTIPLNNVKINGNNRLTSNRDLAIKEIISWDVSQQLYNYRDTYGLSTEGYTRSDGWDSPETKLKGHGSGHYMSALALAYAAATNPSHKEILRRNITRMVNELRECQERTFVWSEELGRYLEARDFAPEEELKKMKGTWEAFDEHKTKWATYGYGYLNAIPPHHPALIEMYRAYNNSDWVWAPYYSIHKQLAGLIDIATYMDDKSIADKALLIAKDMGLWVWNRMHYRTYVKKDGTQEERRTHPGNRYEMWNMYIAGEVGGMGESLARLSEMVSAPEEKARLIEASNCFDSPAFYEPLSKNIDDIRNRHANQHIPMIIGALRSYLSNNDTFYYHVSHNFWNLIQGRYRYSTGGVGNGEMFRQPYTQIVSMAMNGVSEGESHSNPHINETCCAYNLLKLTKDLNCFNPDDARYMDYYERTLYNQIIGSLHPEHYQTTYQYAVGLNASKPWGNETPQSTCCGGTGSENHVKYQEATYFVSDNTLWVALYMPTTLHWEEKNITLQQECLWPAKSSTIKVTAGEARFAMKLRVPYWATDGFDVKLNGISIATHYQPCSYAVIPTRQWKENDIVEITMPFTKHIDYGPDKLPAEIASKDGHQLETAWVGTLMHGPFAMTATDITNWTEATLNIDSRLASITVVEPNGPQTGTTGNLYTLMQGGRTFQPDYYRHDHTTHYFRINHIKDPTVELKMALSAKLRETTAFSKSHYTKASFAKLTTAIQEGEKLMKISPLTETTISTCVDNIDKAIESLVASRLDKSNLEASIHIAKKCNPDLYTTDSFKTLQATLESAHEVMDNIDLQTVIDKQTLSLQDATASLVLANNVDKTELKELLNIAMERQTNQEKWNALAVKIPEFAPWAHFGFTRLKRTLEHAQNVYFNKDKNYSQGEVNAIVASLNTVINTMRPGNLPEMEDLRPLSALLRRVGTIDDSTDPTLKDAVAFTEMVIKYVADGSGTHDMIETAISRLKSAAGEGHHHHHH", "soluble on expression in E. coli": "soluble"},
      {"sequence": "MSLGTSWQIGDVTIPNRVVVAPMAGVTNVAFRMICKAFGAGLVECEMISGQGIHYHNQRTLRMMAVNAQEHPMSIQIFGGTQETLVQAAQFVDQQTAADIIDINMGCPVNKVVNTDAGAKWLLDPQKVHDMVAAVVAAVKKPVTVKMRTGWDDHHIFAVDNALAAQRAGAAAVAMHGRTRKQMYQGQADWQILAEVAQHLTIPFMGNGDVRTPQDAQRMLNEVGADAVMIGRAVMGNPWLLQRINHYLATDELLAEPTPQEKTTIALEHLHKLCVAKGPVEGPRDFRNQVAYYLKGIPHTARTKVAITDATEEAVMHDLLVKFLERMTATIEGHHHHHH", "soluble on expression in E. coli": "not soluble"},
      {"sequence": "IIHEVQKEEACGNLTLQHHMLEPVQRIPRYELLLKDYLLKLPHGSPDSKDAQKSLELIATAAEHSNAAIRKMERMHKLLKVYELLGGEEDIVSPTKELIKEGHILKLSAKNGTTQDRYLILFNDRLLYCVPRLRLLGQKFSVRARIDVDGMELKESSNLNLPRTFLVSGKQRSLELQARTEEEKKDWVQAINSTLLKHEQTLETFKLLNSTNREDEDTPPNSPNVDLGKRAPTPIREKEVTMCMRCQEPFNSITKRRHHCKACGHVVCGKCSEFRARLVYDNNRSNRVCTDCYVALHGVPGSSPACSQHTPQRRRSILEKQASVAAENSVICSFLHYMEKGGKGWHKAWFVVPENEPLVLYIYGAPQDVKAQRSLPLIGFEVGPPEAGERPDRRHVFKITQSHLSWYFSPETEELQRRWMAVLGRAGRGDTFCPGPTLSEDREMEEAPVAALGATAEPPESPQTRDKT", "soluble on expression in E. coli": "soluble"},
      {"sequence": "MHHHHHHSSGVDLGTENLYFQSMLAVHFDKPGGPENLYVKEVAKPSPGEGEVLLKVAASALNRADLMQRQGQYDPPPGASNILGLEASGHVAELGPGCQGHWKIGDTAMALLPGGGQAQYVTVPEGLLMPIPEGLTLTQAAAIPEAWLTAFQLLHLVGNVQAGDYVLIHAGLSGVGTAAIQLTRMAGAIPLVTAGSQKKLQMAEKLGAAAGFNYKKEDFSEATLKFTKGAGVNLILDCIGGSYWEKNVNCLALDGRWVLYGLMGGGDINGPLFSKLLFKRGSLITSLLRSRDNKYKQMLVNAFTEQILPHFSTEGPQRLLPVLDRIYPVTEIQEAHKYMEANKNIGKIVLELPQ", "soluble on expression in E. coli": "soluble"},
      {"sequence": "MSRFRSLLQASVNATKKALTWNVEEWVPPAEKHIFKFHSKEDLKKWHLYSDSEYGGLSSASLEIPDKGDGSDCTGVFSGNLSVDLSEGSKWNISRSGFCGMRSKKFDGFIDLDGYDAIALRIRGDGRCYISTIYTENWVNSPGQSEDNSWQAFVFAPKDSWYTAKIPLARYLPTWRGNVIDVEMEMNPGRVLGMSLSVNAEGGAVGAKSGAGDFRVEIDWIKALRLP", "soluble on expression in E. coli": "soluble"},
      {"sequence": "MGSDKIHHHHHHMRVLLLSDIHSSTQNLEKILKAAEYDAVFIAGDLTQFRPKDAKVVDEIISEQTDSCLAVHGNCDHEAILGEKYKALKFIHGKSVEFDGYTVHGVGGSGITPFNTPSEYTEREILEIMDNFVLRDFNILLSHCPPKGFLDRTYSGVHAGCEAIRERMIEFDVILCGHIHESHGVVDSPQLIVNPGPVMWGRFAVIDVEKKVVELRKL", "soluble on expression in E. coli": "not soluble"},
      {"sequence": "MKNFMKYLEVSKEVKEALENNKPVVALESTIISHGMPFPQNYETALKVEKVIREAGAIPATIAILDGKLKVGLSAEEIEFLGKEGSKIIKVSRRDLPYIVANKLNGATTVATTMIVAEMAGVKVFATGGIGGVHRGAETTMDISADLEELSNTNVAVICAGAKSILDLGLTLEYLETHGVPVLGYQTKKLPAFFTRESEFDLDYKIDTPKELADIITAKWEMGLNGGVVIANPIPVEYSMDYDEISKSIEEAVKEAEAKGIKGKESTPFLLAKIKEITKGKSLEANIQLVYNNAKLASEIAGNMK", "soluble on expression in E. coli": "not soluble"},
      {"sequence": "MSLMVIRPVERSDVSALMQLASKTGGGLTSLPANEATLSARIERAIKTWQGELPKSEQGYVFVLEDSETGTVAGICAIEVAVGLNDPWYNYRVGTLVHASKELNVYNALPTLFLSNDHTGSSELCTLFLDPDWRKEGNGYLLSKSRFMFMAAFRDKFNDKVVAEMRGVIDEHGYSPFWQSLGKRFFSMDFSRADFLCGTGQKAFIAELMPKHPIYTHFLSQEAQDVIGQVHPQTAPARAVLEKEGFRYRNYIDIFDGGPTLECDIDRVRAIRKSRLVEVAEGQPAQGDFPACLVANENYHHFRVVLVRTDPATERLILTAAQLDALKCHAGDRVRLVRLCAEEKTAEGHHHHHH", "soluble on expression in E. coli": "soluble"}
    ]}
  ]
}
